Results on two substances are retold here after US20040170614A1.

Assay in all cases: cell-based or functional assay
Experiment [1] deals with mouse CD40 (mCD40) (mouse) (UniProt P27512).
Experiment [2] has as its target human-mouse hybrid CD40 (hmCD40) (human; mouse) (UniProt P25942).
The next experiment addresses hmCD40ΔT6 (human; mouse) (UniProt P25942).

UniProt P27512, sequence (P27512 20-289): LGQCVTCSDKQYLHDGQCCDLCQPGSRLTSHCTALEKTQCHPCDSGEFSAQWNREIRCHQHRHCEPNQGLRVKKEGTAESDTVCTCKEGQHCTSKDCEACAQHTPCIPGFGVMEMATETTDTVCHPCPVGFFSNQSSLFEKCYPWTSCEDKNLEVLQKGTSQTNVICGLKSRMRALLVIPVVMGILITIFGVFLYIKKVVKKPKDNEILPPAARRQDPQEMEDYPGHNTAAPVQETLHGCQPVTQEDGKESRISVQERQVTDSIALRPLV

In experiment [1], anti-mCD40 mAb 1C10 (antibody) gave an IgM secretion (Pfc), CH12.LX+hmCD40 cells of 431000 Pfc; an IgM secretion (Pfc), CH12.LX+hmCD40ΔT6 cells of 378000 Pfc; an IgM secretion (Pfc), CH12.T2-/-+hmCD40 cells of 399000 Pfc; an IgM secretion (Pfc), CH12.T2-/-+hmCD40ΔT6 cells of 340000 Pfc.
In experiment [2], anti-hCD40 mAb G28-5 (antibody) gave an IgM secretion (Pfc), CH12.LX+hmCD40 cells of 430000 Pfc and an IgM secretion (Pfc), CH12.T2-/-+hmCD40 cells of 376000 Pfc. For the same substance, in the experiment with hmCD40ΔT6 (human; mouse), the IgM secretion (Pfc), CH12.LX+hmCD40ΔT6 cells is 187000 Pfc and the IgM secretion (Pfc), CH12.T2-/-+hmCD40ΔT6 cells worked out at 34000 Pfc.
